Like-named read-outs stand apart in the source and are kept apart here.

The subject of data set [1] is H1299 lung carcinoma cells. The settings on record: added to cells infected with ALAS construct; cited from earlier work.
Data set [2] can be described thus: ALAS steady-state activity, continuous spectrophotometric assay. In kind it is biochemical. The settings on record: 20° C. How it is done: ALAS steady-state activity of the ALAS active site loop variants was determined at 20° C. using a continuous spectrophotometric assay as described previously for wild-type ALAS (Hunter & Ferreira. A continuous spectrophotometric assay for 5-aminolevulinate synthase that utilizes substrate cycling. Anal Biochem. 1995 Apr. 10; 226(2):221-4). Rapid scanning stopped-flow measurements were performed using a model RSM-100 stopped-flow spectrophotometer (OLIS, Inc.). This instrument has a dead-time of approximately 2-ms and an observation chamber path length of 4 mm Spectral scans covering a wavelength range of 300-570 nm were collected at a rate of 1000 scans/s and then averaged to 62 scans/s in order to reduce the time course data files to an appropriate size for global fit analyses. The temperature of the syringes and the stopped-flow cell compartment was maintained at 20° C. by an external water bath. Pre-steady-state kinetic reactions of the variant enzymes were examined under single turnover conditions, using final concentrations of 60 μM enzyme, 120 mM glycine and 10 μM succinyl-CoA in 100 mM HEPES, pH 7.5 and 10% (v/v) glycerol as previously described (Hunter, & Ferreira. Pre-steady-state reaction of 5-aminolevulinate synthase. Evidence for a rate-determining product release J Biol Chem. 1999 Apr. 30; 274(18):12222-8). Single turnover data were evaluated using either a two- or three-kinetic-step mechanism as described by Equations 1 and 2, respectively (Hunter, & Ferreira. Pre-steady-state reaction of 5-aminolevulinate synthase. Evidence for a rate-determining product release J Biol Chem. 1999 Apr. 30; 274(18):12222-8).
(§1) The ALAS steady-state kinetic parameters of wild-type ALAS and the SS2 variant activity assays were also determined at 15, 25, and 35° C.

Data set [3] can be described thus: Pre-steady-state single turnover reactions, rapid scanning stopped-flow (quinonoid intermediate, 510 nm). Format: biochemical. The settings on record: 20° C. As to the method:
FIGS. 5(A) through (D) are graphs showing the single turnover reactions of isolated hyperactive ALAS variants. The pre-steady state kinetic parameters were determined under single turnover conditions (60 μM enzyme-glycine complex, 10 μM succinyl-CoA) at 20° C. by monitoring absorbance changes at 510 nm. The variant catalyzed reactions A4, D8, G7, A8, (panels A-D, respectively) resemble that of the wild-type enzyme in that quinonoid lifetime is observed as a single step of quinonoid intermediate formation and 2-step process of decay (Hunter, & Ferreira. Pre-steady-state reaction of 5-aminolevulinate synthase. Evidence for a rate-determining product release J Biol. Chem. 1999 Apr. 30; 274(18):12222-8).
FIGS. 6(A) through (D) are graphs showing the single turnover reactions of isolated hyperactive ALAS variants. The pre-steady state kinetic parameters were determined under single turnover conditions (60 μM enzyme-glycine complex, 10 μM succinyl-CoA) at 20° C. by monitoring absorbance changes at 510 nm. […]
FIG. 7 is a graph showing the SS2 variant catalyzed reaction. Equilibrium and pre-steady state kinetic parameters for the SS2 variant were determined at 20° C. by monitoring changes in absorbance at 510 nm associated with quinonoid intermediate lifetime, under single-turnover conditions.
ALAS steady-state activity of the ALAS active site loop variants was determined at 20° C. using a continuous spectrophotometric assay as described previously for wild-type ALAS (Hunter & Ferreira. A continuous spectrophotometric assay for 5-aminolevulinate synthase that utilizes substrate cycling. Anal Biochem. 1995 Apr. 10; 226(2):221-4). […] Single turnover data were evaluated using either a two- or three-kinetic-step mechanism as described by Equations 1 and 2, respectively (Hunter, & Ferreira. Pre-steady-state reaction of 5-aminolevulinate synthase. Evidence for a rate-determining product release J Biol Chem. 1999 Apr. 30; 274(18):12222-8). […]

The conditions of data set [4]: 37 C, pH 7.2; cited from earlier work.
Data set [5] in a line: Temperature dependence of steady-state kinetics, Arrhenius plot, thermodynamic activation parameters. In kind it is biochemical. How it is done: FIG. 9 is a graph showing the thermal dependence of the SS2 variant-catalyzed reaction. kcat values were calculated by performing steady-state kinetics at different temperatures. (A) an Arrhenius plot depicting the difference between the wild-type ([…]) and the SS2 variant-catalyzed (◯) reactions at 288, 293, 298, 303 and 308K. Error bars are plotted over and partially obscured by the data points.
as §1
The natural log of the calculated values for the turnover numbers (lnkcat) were plotted vs. the inverse of temperature and the data were fit to the Arrhenius equation.
where Ea is the activation energy, R is the universal gas constant, T is the absolute temperature, and A is the frequency factor. The determined activation energies were then used to calculate the thermodynamic activation parameters, ΔH, ΔG and ΔS, as previously described (Hunter, et al. Transient kinetic studies support refinements to the chemical and kinetic mechanisms of aminolevulinate synthase. J Biol. Chem. 2007 Aug. 10; 282(32):23025-35. Epub 2007 May 7). The turnover numbers for each enzyme were used to construct an Arrhenius plot, from which the thermodynamic activation parameters were derived seen in Table 4.

In the case of `CC(=O)N(O)CCCCCNC(=O)CCC(=O)N(O)CCCCCNC(=O)CCC(=O)N(O)CCCCCN` [desferrioxamine], the Potentiation of photosensitivity result in data set [1] was “two-fold”.

B1: WT: wild-type murine erythroid 5-aminolevulinate synthase (mALAS-2) (protein, UniProt P08680 50-587, looked up)
5-aminolevulinate synthase, …: QIHLKATKAGGDSPSWAKSHCPFMLSELQDRKSKIVQRAAPEVQEDVKTFKTDLLSTMDSTTRSHSFPSFQEPEQTEGAVPHLIQNNMTGSQAFGYDQFFRDKIMEKKQDHTYRVFKTVNRWANAYPFAQHFSEASMASKDVSVWCSNDYLGISRHPRVLQAIEETLKNHGAGAGGTRNISGTSKFHVELEQELAELHQKDSALLFSSCFVANDSTLFTLAKLLPGCEIYSDAGNHASMIQGIRNSGAAKFVFRHNDPGHLKKLLEKSDPKTPKIVAFETVHSMDGAICPLEELCDVAHQYGALTFVDEVHAVGLYGARGAGIGERDGIMHKLDIISGTLGKAFGCVGGYIASTRDLVDMVRSYAAGFIFTTSLPPMVLSGALESVRLLKGEEGQALRRAHQRNVKHMRQLLMDRGFPVIPCPSHIIPIRVGNAALNSKICDLLLSKHSIYVQAINYPTVPRGEELLRLAPSPHHSPQMMENFVEKLLLAWTEVGLPLQDVSVAACNFCHRPVHFELMSEWERSYFGNMGPQYVTTYA
As to B1, the Kcat in data set [2] came to 0.02 ± 0.01 s⁻¹. In addition, the Km in data set [2] (read-out: Km^Gly) came out at 14 ± 2 mM. Besides, the Km in data set [2] (read-out: Km^SCoA) came to 0.011 ± 0.001 mM. For the same molecule, in data set [3] (60 μM enzyme, 120 mM glycine, 10 μM succinyl-CoA), the “Qf, rate for quinonoid intermediate formation” value turned out to be 0.8 s⁻¹. Besides, in data set [3], the “Qd1, rate for first step of quinonoid intermediate decay” value was 0.53 s⁻¹ and the “Qd2, rate for second step of quinonoid intermediate decay” value was determined as 0.01 s⁻¹. Also, the “Catalytic efficiency for the substrate glycine” value in data set [4] was 56.7 M⁻¹ s⁻¹. Moreover, in data set [5] (30° C.), the “ΔG^‡ (30° C.)” value was determined as 19 kcal/mol, the “ΔH^‡ (30° C.)” value worked out at 48 kcal/mol and the “ΔS^‡ (30° C.)” value is listed as −95 cal/mol · K. Besides, the “Slope/(K) of Arrhenius plot” value in data set [5] (288-308 K) is −24000 K. Besides, the “Ea, activation energy” value in data set [5] (288-308 K, listed as WTALAS) amounted to 48 kcal/mol. Also, in data set [5] (steady-state temperature dependence), the “Q10 for the catalytic rate constant” value is “seven”.

These data come from patent US20100248328A1, “HYPERACTIVE VARIANTS OF 5-AMINOLEVULINATE SYNTHASE AND METHODS OF USE” (UNIVERSITY OF SOUTH FLORIDA, priority 2005, published 2010).
